Source: PMC7668070 (2020)

Biological target: WT ACE2(740)-Fc (human, UniProt Q9BYF1 18-740)
Experiment: BLI

B1: HCoV-NL63 spike RBD (domain or fragment)
chain: QHTDINFTATASFGGSCYVCKPHQVNISLNGNTSVCVRTSHFSIRYIYNRVKSGSPGDSSWHIYLKSGTCPFSFSKLNNFQKFKTICFSTVEVPGSCNFPLEATWHYTSYTIVGALYVTWSEGNSITGVPYPVSGI
Kd: 22 nM
